In data set [1] the target is H2 peptide derived from MAP1LC3C.
Data set [2] addresses T1, H2 α-helical peptide derived from GBRL2 (GABARAPL2 alpha-helix 2 domain).
T1 chain: VAQFMWIIRKR

In data set [3] the target is H2 peptide derived from GBR.
In data set [4] the target is H2 peptide derived from MAP1LC3B.

B1: recombinant ATG4B (protein)
chain: MDAATLTYDTLRFAEFEDFPETSEPVWILGRKYSIFTEKDEILSDVASRLWFTYRKNFPAIGGTGPTSDTGWGCMLRCGQMIFAQALVCRHLGRDWRWTQRKRQPDSYFSVLNAFIDRKDSYYSIHQIAQMGVGEGKSIGQWYGPNTVAQVLKKLAVFDTWSSLAVHIAMDNTVVMEEIRRLCRTSVPCAGATAFPADSDRHCNGFPAGAEVTNRPSPWRPLVLLIPLRLGLTDINEAYVETLKHCFMMPQSLGVIGGKPNSAHYFIGYVGEELIYLDPHTTQPAVEPTDGCFIPDESFHCQHPPCRMSIAELDPSIAVGFFCKTEDDFNDWCQQVKKLSLLGGALPMFELVELQPSHLACPDVLNLSLDSSDVERLERFFDSEDEDFEILSL
Take B1: the “ATG4B cleavage of chimeric Myc-GBRL2-S-tag substrate (blot)” value in data set [1] was “inhibited ATG4B cleavage activity in dose dependent manner”; in data set [2], “inhibited ATG4B cleavage activity in dose dependent manner, while H2 peptides derived from MAP1LC3B and GBRL2 had the strongest inhibition on ATG4B”; in data set [3], “inhibited ATG4B cleavage activity in dose dependent manner”; in data set [4], “inhibited ATG4B cleavage activity in dose dependent manner, while H2 peptides derived from MAP1LC3B and GBRL2 had the strongest inhibition on ATG4B”.

Values taken from patent US20220144890.
